Measurements as given in US20240108693A1, “METHOD OF TREATING LOWER URINARY TRACT SYMPTOMS” (Versameb AG, priority 2021, published 2024).
Entries after “also recorded” stand apart in the source; their conditions may differ.

Assays:
[1] = tested on: vaginal distension (VD) animal model of stress urinary incontinence (SUI); assay: Leak point pressure (LPP) in rat vaginal distension model for stress urinary incontinence; assay type: in vivo; settings: for area under curve (AUC) of urinary bladder leak point pressure: Day 0-14 after VD; for time course of leak point pressure (LPP): Day 4, 9 and 14 after VD; for leak point pressure (LPP) of urinary bladder: Cpd.1B single urethral injection Day 0, Duloxetine 20 mg/kg oral daily
Text: The urethra is a conduit for elimination of urine from the bladder. It is composed of an epithelium lining the lumen, lamina propria with a prominent vascular plexus, smooth muscle and an outer layer of striated muscle (called external urethral sphincter). The urethra functions in coordination with the bladder: it remains closed during bladder filling to maintain continence and it relaxes during voiding to allow flow of urine. These processes are controlled by parasympathetic, sympathetic and somatic innervation. Parasympathetic nerves release nitric oxide to relax the urethra during bladder voiding, while sympathetic nerves release noradrenaline to contract the urethra during bladder filling. The striated muscle receives somatic innervation that contracts the muscle ensuring continence during bladder filling. Using the model of stress urinary incontinence (SUI) in female rats the hypothesis was tested if Cpd.1B can be effective against SUI in the vaginal distension (VD) model by facilitating muscle growth and regeneration. […] Vaginal Distension (VD) was applied for 4 hours to female Sprague-Dawley Female rats under isoflurane anesthesia. 1 hour after the end of VD, the abdomen was surgically opened to access the urethra and rats received two injections of vehicle or Cpd.1B (10 μg each) through a Hamilton syringe at approximately 5 and 7 o'clock positions. Sham treated animals (catheter without inflation) were treated with vehicle as controls. […] Rats were then put in a supine position on a heated pad at 37° C. The bladder was emptied manually and filled with room temperature saline through the bladder catheter at 3.0 ml/h. After bladder filling with 0.4-0.5 ml, the abdomen was slowly depressed manually to increase abdominal pressure until fluid leakage was observed from the urethral orifice.

[2] = tested on: vaginal distension (VD) animal model of stress urinary incontinence (SUI); assay: Histological assessment of urethral integrity after vaginal distension (Masson trichrome scores); assay type: in vivo, rat; settings: mid-urethra cross-sections, Day 9 and 14 after VD
Experimental: Vaginal Distension (VD) was applied for 4 hours to female Sprague-Dawley Female rats under isoflurane anesthesia. 1 hour after the end of VD, the abdomen was surgically opened to access the urethra and rats received two injections of vehicle or Cpd.1B (10 μg each) through a Hamilton syringe at approximately 5 and 7 o'clock positions. Sham treated animals (catheter without inflation) were treated with vehicle as controls. […] From 2 animals of each group, the urethra-vaginal tissues were harvested (cross-section of the mid-urethra and anterior vagina) on Day 9 and 14, and the tissues immersed in neutral buffered formalin containing 4% formaldehyde for a period of 4 h, then embedded in paraffin. Sections of 5 μm were stained with the standard procedures of Hemalun-Eosin (HE), Masson Trichrome (MT) and Picrosirius red. Based on morphology and tissue integrity, histology scores were allocated to the outer circular muscle layer (OCML), the inner longitudinal muscle layer (ILML) and the endomysial tissue of mid-urethral sections, and Day 9 and 14 sampled. The following histological scores were applied to the different layers and averaged per group: • Outer Circular Muscle Layer (OCML, skeletal muscle): • 0=circumferential regular • 1=circumferential focally thinned • 2=discontinued • 3=mostly absent • Inner Longitudinal Muscle Layer (ILML, smooth muscle): • 0=mid-sized to large fascicles • 1=small fascicles) • Endomysial tissue: • 0=thin, dense • 1=thickening by loose connective tissue • 2=focal replacement of muscles by connective tissue • 3=replacement of muscles by connective tissue

[3] = rat, in vivo
Experimental: (§1) For assessment of Cpd.1A exposure in rat tibialis anterior (TA) muscle, two injections of each 15 μl Cpd.1A at different doses (1, 3 or 10 μg per injection) into TA muscles of male or female rats were performed in adult rats. After 6, 24, 48 and 72 hours, TA muscles were harvested, divided into two parts to analyse RNA and protein content, and Cpd.1A RNA content was analysed by qPCR and IGF1 protein levels by human-specific IGF1 ELISA (Cat. #E20, Mediagnost, Reutlingen, Germany). Total RNA was extracted from flash frozen TA muscle tissues (ca. 10 mg) using Norgen's Animal Tissue RNA Purification Kit (Cat. #25700). A TaqMan assay was developed and validated to quantify Cpd.1A and Cpd.1B RNA from muscle tissues through absolute quantification. Both forward primer (5′ […] 3′; SEQ ID NO: 14) and reverse primer (5′ […] 3′; SEQ ID NO: 15) along with labelled probe with quencher (5′ FAM-CTGCTGCCGTAGCCTG-MGB-Q500 3′; SEQ ID NO: 16) were designed to be specifically bind to Cpd.1A and Cpd.1B RNA and ordered (www.microsynth.com). […] The Cpd.1A RNA copy numbers in TA muscles were assessed by calculating unknown values from standard curves. From qPCR data, half-life was calculated using a monoexponential decay function. […] After 24 and 72 hours, tissues were harvested, and Cpd.1B content was analysed by qPCR as specified above where standard curve template generated from Cpd.1B mRNA.

IGF1 protein = IGF1 protein expression in rat TA muscle after i.m. injection of Cpd.1A (human-specific IGF1 ELISA); assay type: in vivo; settings: 3 and 10 μg doses i.m., after a delay of several hours
Experimental: as §1

## CNCC[C@H](Oc1cccc2ccccc12)c1cccs1 [Duloxetine, reference compound]
[1]
  area under curve (AUC) of urinary bladder leak point pressure: clear increase in AUC; also recorded: beneficial efficacy
  time course of leak point pressure (LPP): initial increase in LPP that declined thereafter to normal levels on Day 14
[1]; Day 4 after VD, vs. VD vehicle
  leak point pressure (LPP) of urinary bladder: initial increase of LPP; also recorded: significant increase of LPP; also recorded: increased LPP
[1]; Day 14 after VD
  leak point pressure (LPP) of urinary bladder: control levels
[2]
  endomysial tissue histology score: further worsened this pathology
  inner longitudinal muscle layer (ILML) histology score: further increased the ILML score
  outer circular muscle layer (OCML) histology score: further deteriorated the OCML pathology
[2]; listed as duloxetine
  endomysial tissue histology score: worsens the endomysium score
  inner longitudinal muscle layer (ILML) histology score: worsens the ILML score
  outer circular muscle layer (OCML) histology score: tends to worsen the OCML disorganization

B1: Cpd.1A: mRNA encoding human BDNF signal peptide, IGF1 pro-domain and mature human IGF1 (SEQ ID NO: 8), from pMA-T vector, N1-methylpseudouridine modified (nucleic acid)
DNA: AUGACCAUCCUGUUUCUGACAAUGGUCAUCAGCUACUUCGGCUGCAUGAAGGCCGUGAAGAUGCACACCAUGAGCAGCAGCCACCUGUUCUAUCUGGCCCUGUGCCUGCUGACCUUUACCAGCUCUGCUACCGCCGGACCUGAGACACUUUGUGGCGCUGAACUGGUGGACGCCCUGCAGUUUGUGUGUGGCGACAGAGGCUUCUACUUCAACAAGCCCACAGGCUACGGCAGCAGCUCUAGAAGGGCUCCUCAGACCGGAAUCGUGGACGAGUGCUGCUUCAGAAGCUGCGACCUGCGGCGGCUGGAAAUGUAUUGUGCCCCUCUGAAGCCUGCCAAGAGCGCCUAA
modifications: mRNA, N1-methylpseudouridine modified; misc_feature 1..348 RNA sequence of Cpd.1A and Cpd.1B; misc_feature 1..348 m1f (uridine is 1-methylpseudouridine)
[3]
  duration of relevant Cpd.1A exposure in TA muscle: up to 72 hours
[3]; im, 3 ug
  half-life of Cpd.1A in TA muscle: 21 h
IGF1 protein
  duration of IGF1 protein production at relevant concentrations in TA muscle: up to 72 hours

B2: Cpd.1B: mRNA encoding human BDNF signal peptide, pro-IGF1 and mature IGF1 without E-peptide, 120 bp poly-A tail, from pMK vector (nucleic acid)
chain: B1 DNA
modifications: 1-methylpseudouridine; poly-A tail; misc_feature 1..348 RNA sequence of Cpd.1A and Cpd.1B; misc_feature 1..348 m1f (uridine is 1-methylpseudouridine)
notes: mRNA encoding human BDNF signal peptide, pro-IGF1 and mature IGF1 without E-peptide, 120 bp poly-A tail, from pMK vector
[1]
  area under curve (AUC) of urinary bladder leak point pressure: clear increase in AUC; also recorded: beneficial efficacy
  time course of leak point pressure (LPP): increase of LPP over time that returned to normal levels by Day 14
[1]; Day 4 after VD, vs. VD vehicle
  leak point pressure (LPP) of urinary bladder: significant increase in LPP; also recorded: significant increase of LPP; also recorded: increased LPP
[1]; Day 9 after VD
  leak point pressure (LPP) of urinary bladder: further increased; also recorded: did not reach significance; also recorded: still showed increased LPP
[1]; Day 14 after VD
  leak point pressure (LPP) of urinary bladder: full recovery to healthy LPP levels
[2]
  endomysial tissue histology score: completely prevented this impairment; also recorded: reverted
  inner longitudinal muscle layer (ILML) histology score: preventing this disruption; also recorded: reverted
  outer circular muscle layer (OCML) histology score: prevented this trend; also recorded: reverted
